A short description of this data set: label from the status in PepcDB records.

Drawing on a protein production outcome set (Wang et al. 2014), this text covers protein production for eleven sequences.

As to “MSPAAECRRQLSLDSSEAIGLQPLMQRASNTAGVFVMIDTQLEQQLQGFSALQSLFEADFDVRRLFTAEDALEAGEYGRLTVEALRNDPAAGQLFEERWVLPELNLSSLLQLPEGSFGRVYAEMLVGNGFDPDYVIQIAPVEGDDDLSYFKRLWRTTHDFHHIATGLGTDPRGEVALQAFLMGQLPIPFSVVVVSMGLLRTSVAQPDRIPALVDAISDAFRRGRHSPQLLLAQRWDHFWALPVAEVRQQLQIADLEHHHHHH”, the protein production entry is “failed”. As to “MSPGGLCDAPHMAVAPRVKPLDLFTPEEWTRISARSSWRGIWMVAHAWGVILAAGALFVAFPNPLTYVLAVMLIGARQLGLAILMHEAAHGGLHPKLKVNDWLGEWLCAAPVGASLASYRPYHLSHHKYAQQAEDPDLVLSAPFPTTRRSLRRKMIRDLTGQTFFKQRFGPLLGKMKGAKTTGQPKGAIFAGEIARQRPFLLWNLGILVVLSALGLWWAWPALWIVPMATWFPLVTRLRNIAEHALVAKDEPDPFRHARTTNANWIERALIAPYYVNFHAEHHMFMHTPCWNLPLAHRVLEKKGLTQGMLTAPGYLSVLKAASSKPVAA”, the protein production entry is on record as “failed”. Turning to “MSPIALNLLQSTPYQVGGSLAANHPSYSQREADRELLAQLRAGKFCYVFNCRQMGKSSLRVRAMHQLQQDGVVCVSIDITSLGTEADPQKWYNGIITQLYLGLPLAGKVALKPWLREREQLSPIQKLREFVETIILQTIGDRQIVIFIDEIDKVLSLPFSLDDFFSYIRFCYNQRADDHEYNRLSFALFGVATPSDLIDNKTQTPFNIGQAIALTGFTLTEALPLSAGLPVDEVSAREILGEILAWTGGQPFLTQKVCELVAEALQKGDLDCQSQTIATTIAQLIEEKIIRHWESNDEPVHFRTIGDRLLKDQARSGQLLGLYQEILHKGAIPADDSVEQTVLRLTGLVVKVKGQLRPYNPIYQAIFNAQWVSKELNKLRPYGTNLQAWINSNYQDSSRLLRGEALREALAWASSKNLSGVDYRYLNASQNQEQEASLAANQILTQANVKAKRMISFGIVVLMMSLGGSAIALSQAYFATLKQQRSQQGTELQRLGTSAQRQFTFDQIPGLVTALEAGNQLHHLVKADETLSQYPATSPLVSLQQILSQIAEKNVLTGHRDGVTSVAISSHKNLIASASRDGTVHLWTPQGEFLREFTGHTGSIYRVDFSPNGKIFATAGQDQTVKIWDLDGNLLQTLKGHQDSVYSVSFSPDGEILASTSRDRTVRLWHWRSGKTLAVLGGHTKSVDDAQFSPDGQTLVSVCRDGQIRLWDLDGNLIRQFGLPEVAFFGVNWHPNGNLLAVAADDGTVRLWTPQGEIKATLSGHDEFVTRVVFTPDGKQLFSSSSNGSVIHWSTSGKMLKKYQGYPEAIFGLALASNGALLAIGAENNLVKVWDMSPKSDLVNLNLPAVLGAVAENAKTNTIALAMENEPLILFNTKNRSRQFLSDASQNLDRLKFSADGQWLLGQRGRQWQLWQLQTKSQLLKTWRTDISRVYDVDLRTTPTSPQWAIAMATGSGEVQLWQGTKNNQTSGNQSQGVPIELNDPIVLALGNSIQRKEPIRSVSLHPTLPQLAAGDEQGNLTLWNFDGTLIRSIVAHGDRLNQLQYSPNGKYLLSAGREGTAKIWSVEGQLLHTLKSDPLPIDQIAISPDSQWIATAASDGMVRLWDQQGNLRGEFTSTSGSLLGLDFNRQGQWLLAVAQNGDLQSWPVTPEKERLRQLVEQGCDWLRDYLATEKQPAQTYSLEFCQPTGN”, the protein production result is “failed”. As for “MSPPARKLDPWTLLLWLGLAAVSLVALYSTTHGPAAEYIGPGVQDNFARQFLWIGVSIAGIAATLLVPVRFLRYAAYPAYAATLVLLVLCLVMGVEVHGTRAWLALGPLRLQVSELAKVGTVLAVAQLLSERHTRAGQDLSFALKAAGLIVAPALLVILQNDLGTALVFFGLVPIMLFWSGLSLSVLLLMVSPAIAGYFALVSTPAALGFAVLFTGGLWAYSGRRSIAALAATFTAGVTALISFVLRKILQPYQVDRLLSFTNPGAEQFRQGVGFHLVQSKAALYSGGIWGTGFMQGPQTQGAYVPEQTTDFIFSVVAEEFGLVGSLVVLGLLAALLLRLIKLGADVKHPFGSIVAAGAVGVYLIHIFINIGMVTGMLPVIGLPLPFLSYGGSAMLANTALLAIVLNTHMRREDLSIYGY”, the protein production entry is on record as “failed”.

For the sequence “MSPPPAVVTESADGQPEQPPVTAIAEELEKKLQTDEPIVEDVKDDEDDDDDDEEEEDDDAQGVSGSSKQSRSEKKSRKAMLKLGMKPVTGVSRVTIKRTKNVLFFISKPDVFKSPHSETYVIFGEAKIEDLSSQLQTQAAQQFRMPEIGATSQRAEASTATVEAQVEEDEEEIDETGVEARDIDLVMTQAGVSRSKAVKALKSHDGDIVSAIMELTT”, the protein production result was “failed”. With “MSPSCPMCTKWLDEPEFRIAELEHTRVMLNRDQFFPGYTFVFTREHVTELFHLSPPVRQGVMEEVTAVAAALYDLFQPAKMNYELLGNMVPHMHWHLVPRFATDPLWPRPIWSEPHAETLLAPEEYAGRIALIRDRLGL”, the protein production entry was “failed”. In the case of “MSPSHSINSNSDGNASCSTCSTCFDTTTSTTDEEYDALIKTKTWSLVPKPAGTNIINSIWLYKHKYNADGSLSRYKSRLVANGKSQEHGVDFYETFSPVVKPATIRAVLNFAVERDSSVHQLDVQNAFLHGKLEETVYMYEPPGFVDNKNPGYVCKLNKALYGFKQAPRAWNARFASYVKMMGFKQSKCDASLFVYKQGNDMAYLLLYVDDIMLTASSPSQEKYAKNIINIVEMQNWKPSLTSVDLACKLEESVGPKIQDLTLYRSLVGALQYLTITRPNISYAVQQGLSITKSPSTKLVADSDADWVGCPNTRRSTSGYCVFLRDTLISWSSKRQGSVSRSSAEAEYKAVANAVVATCEVRVIHIPASHQYADIFTKGLTTSLFNRFKSSLGVIQRPTKRLREGDLLFNRKDEIRTFEVVSRYGHGPKLLGRFSGGRIEEFINARTLSAANLRDAEVPTRVAAKLREFHGINIPGDRNVLIWDRMRNWLRQAKSLCTPEDLAEFGLDKIEDEIYLLEHELQDKCKQQEIGFCHNDLQYGNIMIDEDTNAITIIDYEYASYNPVAYDIANHFCEMAANYKVAGEEERRRFIHNYLSSSGEEPKEDDIKQLLKDAEKYTLASHLFWGLWGIISGYVNKIDFDYAEYSRQRFKQYWLRKPELLLFSQMYISNTK”, the protein production entry is “failed”. Consider “MSPTVLPATQADFPKIVDVLVEAFANDPTFLRWIPQPDPGSAKLRALFELQIEKQYAVAGNIDVARDSEGEIVGVALWDRPDGNHSAKDQAAMLPRLVSIFGIKAAQVAWTDLSSARFHPKFPHWYLYTVATSSSARGTGVGSALLNHGIARAGDEAIYLEATSTRAAQLYNRLGFVPLGYIPSDDDGTPELAMWKPPAMPTV”, for which the protein production entry is recorded as “not failed”. For the sequence “MSPVLLFILGVVFVAIGVAVSIALHEVGHLVPAKLFKVRVTKYMIGFGPTLWSKKKGETEYGFKALPLGGYVSMIGMYPPNKEDGAVRPSSTGMFQTLATEARSMAHEEVGPGDENRVFYKLPVWKKIIVMLGGPAMNMLIGLILLAVLLMGFGMATATTTIADVSKCQVAAGETVDPDSADCKLTPAAAAGLQPNDTITSFDGKAVTSWDELTSWIRASAGRDVPITVERNGSTVETTVTPVLSSRPVVGADGRPEQDADGVLKYQEVGFLGIGAQSELVPQPASAVLPMAGENIKQISGVIFNLPARVVGVAKAAFSEEPRDPNGPISVVGVGRVAGEVAAMEQVPMQARIGTLIGLLAGLNFALAIFNLIPLLPLDGGHVAGALYEGARRRVAKLLGKPDPGAFDIAKLLPATYVVAALLMAMGALLIYADIVKPVNIFG”, the protein production result is given as “failed”.

With “MSQANANFLDNSKVSANKTAESGQLKEFRTPPHNLAIEQAVLAALMTVAESFEQVNDLLKENDFYATRHKYIFRAIEKLAQENSPYDAVLVNDWLLKQNLLDAIGGEEYLMQLMADSPSSFYNLETYASKIKEFSTLRSMIKVSSDILQNAYDTKGRPVSEILDLAETSIFSLAEQHNNNKKDAGPKSISSVTADVISKLDELSKLDGNITGLTTGFLELDNKTYGMQSGDMIIVAARPSMGKTTFAMNLVESVLFNCNLPALVFSMEMPADSIAMRLISSYGKVHQGHLRSGKLDGDEWSKVTGTILQLQEKHLYIDDSSALPPTELRARARRIAKQHGGKLGCIMIDYLQLMKVPGMGDNRVGEIGEISRSLKALAKEMDCPVIALSQLNRSLENRPNKRPVMSDLRESGAIEQDADLIMFIYRDEVYNKESKEAGTAEIIIGKQRNGPIGTVRLAFEGQYTRFSNLSPEYYSQYDDEE”, the protein production entry is “failed”.

As for “MSQDKQMKAVSPLLQRVINISSIVGGVGSLIFCIWAYQAGILQSKETLSAFIQQAGIWGPPLFIFLQILQTVVPIIPGALTSVAGVFIYGHIIGTIYNYIGIVIGCAIIFYLVRLYGAAFVQSVVSKRTYDKYIDWLDKGNRFDRFFIFMMIWPISPADFLCMLAALTKMSFKRYMTIIILTKPFTLVVYTYGLTYIIDFFWQML”, the protein production result is recorded as “failed”.
